The source of these data is patent US20220090060A1 (Regeneron, published 2022).

What is called Kd is the free concentration of one partner at which half of the binding sites on the other are occupied at equilibrium, for simple one-to-one binding. A higher Kd goes with weaker binding. By koff is commonly meant the first-order rate constant of dissociation. A lower koff goes with a long-lived complex. What is called kon is the rate constant with which the complex forms. A high value points to fast association. The t½ is the time needed for the level to fall by half in the phase considered.

The target in the assay is T1, hCD22.mmh (human, UniProt P20273 20-687).
T1 construct: Analyte of the Biacore assay; also called Recombinant CD22; human CD22
T1 sequence (looked up): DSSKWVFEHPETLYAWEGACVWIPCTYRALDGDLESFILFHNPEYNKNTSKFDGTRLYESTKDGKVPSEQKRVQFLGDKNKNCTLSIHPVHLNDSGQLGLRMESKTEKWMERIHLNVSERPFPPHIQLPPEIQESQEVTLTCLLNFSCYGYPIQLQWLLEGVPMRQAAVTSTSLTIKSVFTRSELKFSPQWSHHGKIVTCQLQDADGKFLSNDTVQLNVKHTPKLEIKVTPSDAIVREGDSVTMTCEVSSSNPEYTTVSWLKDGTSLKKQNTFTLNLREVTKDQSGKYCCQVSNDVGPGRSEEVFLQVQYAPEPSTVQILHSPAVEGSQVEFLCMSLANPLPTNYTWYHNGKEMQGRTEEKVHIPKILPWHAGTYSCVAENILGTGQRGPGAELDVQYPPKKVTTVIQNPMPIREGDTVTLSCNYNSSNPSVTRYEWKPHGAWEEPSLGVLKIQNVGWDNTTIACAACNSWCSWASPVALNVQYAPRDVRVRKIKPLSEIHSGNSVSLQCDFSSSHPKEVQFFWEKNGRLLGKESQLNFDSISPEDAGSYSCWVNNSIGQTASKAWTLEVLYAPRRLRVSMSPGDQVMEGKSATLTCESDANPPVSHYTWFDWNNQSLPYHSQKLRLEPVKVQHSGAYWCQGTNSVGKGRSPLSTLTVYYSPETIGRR
As to the kind of experiment: SPR (Biacore), mAb captured from CHO supernatant on anti-human Fc, 25C pH 7.4. (In general: Surface plasmon resonance follows binding to a sensor surface in real time, without labels.)

B1: mAb23 (antibody, V domains shown)
VH: EVQLLESGGGLVQPGGSLRLSCAASGFTFSSYAMTWVRQAPGKGLEWVSTISGSGVSTYSADSVKGRFTISRDNSKNTLYLQMNSLRAEDTAVYYCALHWELLDAFDIWGQGTMVTVSS
VL: EIVLTQSPGTLSLSPGERATLSCRASQSISYNYLAWYQQKPGQAPRLLIYGASSRASGISDRFSGSGSGTDFTLTISRLEPEDFVVYYCQQYGSSPLTFGGGTKVEVK
B1 yielded a Kd of 160 nM, a koff of 0.0117 s⁻¹, a kon of 73200 M⁻¹ s⁻¹ and a t½ of 1 min.
